Assay results as given in PMC5366330, “The Activity of a Hexameric M17 Metallo-Aminopeptidase Is Associated With Survival of Mycobacterium tuberculosis” (Frontiers in Microbiology, 2017).

Experiments:
[1] = biological target: T1, MtLAP (leucine aminopeptidase of M. tuberculosis, Rv2213) (Mycobacterium tuberculosis, UniProt P9WHT3); assay: biochemical
T1 construct: gene pepA

[2] = test system: Cc1cc(=O)oc2cc(NC(=O)[C@@H](N)CC(C)C)ccc12; assay: purified protein; conditions: divalent metal (Ni2+, […] NiSO4 in the assay)
[3] = test system: Cc1cc(=O)oc2cc(NC(=O)[C@@H]3CCCN3)ccc12; assay: purified protein; conditions: divalent metal (Ni2+, […] NiSO4 in the assay)
[4] = test system: CSCC[C@H](N)C(=O)Nc1ccc2c(C)cc(=O)oc2c1; assay: purified protein; conditions: divalent metal (Ni2+, […] NiSO4 in the assay)
AUC + SEC = biological target: the molecule itself; assay: AUC + SEC

**Q.** For `CC(C)C[C@H](NC(=O)[C@@H](O)[C@H](N)Cc1ccccc1)C(=O)O` [bestatin], which IC50 [1] is on record?
**A.** 53.8 nM

**Q.** Which Km [2] does the source give for “MtLAP (leucine aminopeptidase of M. tuberculosis, Rv2213) (Mycobacterium tuberculosis H37Rv)” here?
**A.** 69.4 ± 3.6 µM

**Q.** And the Km [3]?
**A.** 344.8 ± 49.2 µM

**Q.** What about the Km [4] of the same molecule?
**A.** 61.8 ± 4.4 µM

B1: leucine aminopeptidase of M. tuberculosis (MtLAP) (enzyme)
chain: MTTEPGYLSPSVAVATSMPKRGVGAAVLIVPVVSTGEEDRPGAVVASAEPFLRADTVAEIEAGLRALDATGASDQVHRLAVPSLPVGSVLTVGLGKPRREWPADTIRCAAGVAARALNSSEAVITTLAELPGDGICSATVEGLILGSYRFSAFRSDKTAPKDAGLRKITVLCCAKDAKKRALHGAAVATAVATARDLVNTPPSHLFPAEFAKRAKTLSESVGLDVEVIDEKALKKAGYGGVIGVGQGSSRPPRLVRLIHRGSRLAKNPQKAKKVALVGKGITFDTGGISIKPAASMHHMTSDMGGAAAVIATVTLAARLRLPIDVIATVPMAENMPSATAQRPGDVLTQYGGTTVEVLNTDAEGRLILADAIVRACEDKPDYLIETSTLTGAQTVALGTRIPGVMGSDEFRDRVAAISQRVGENGWPMPLPDDLKDDLKSTVADLANVSGQRFAGMLVAGVFLREFVAESVDWAHIDVAGPAYNTGSAWGYTPKGATGVPTRTMFAVLEDIAKNG
notes: also called M. tuberculosis LAP; Rv2213
**Q.** With B1 as the molecule, how does the “stoichiometry N” value (AUC + SEC) read?
**A.** 6
